Here are results for 13 molecules from patent US20250381223A1 (UTC THERAPEUTICS SHANGHAI, published 2025).

B1: anti-CD123 scFv-C17 (scFv)
scFv: QSALTQPASVSGSLGQSITISCTGTSSDVGTYDYVSWYQQHPGKAPKLMIYDVTYRPSGVSHRFSGSKSGNTASLTISGLQADDEADYYCQQYNNWPPRYTFGQGTKVEIKGGGGSGGGGSGGGGSQVQLVQSGAEVEKPGASVKLSCTASGYNFNSYYMHWVRLTPGQGLEWMGLINPTNGRTTYAQKFQGRVTMTGDTSTRTVYLALSSLRSEDSALYYCARGSPPHIFDPDFDYWGQGTLVTVSS
notes: On mRNA-electroporated T cells as CAR
B2: anti-CD123 scFv-C18 (scFv)
scFv: QSALTQPASVSGSPGQSITISCTGTSSDVGGYNYVSWYQQHPGKAPKLMIYDVSNRPSGVSNRFSGSKSGNTASLTISGLQAEDEADYYCSSYTSSSTLFVFGTGTELTVLGGGGSGGGGSGGGGSQVQLQESGPGLVKPSQTLSLTCTVSGGSISSGDYYWSWIRQSPGKGLEWIGYIHSTGTTYYNPSLKSRLTISLDTSKNQFSLKLNSVTAADTAVYYCARGGVGTIFNYWGQGTLVTVSS
notes: as for B1
B3: anti-CD123 scFv-C32 (scFv)
scFv: QSVVTQPPSASGTPGQRVTISCSGSSSNIEGNTVSWYQQFPGAAPKLLIYSNSYRASGVPDRFSGSKSGTSASLAISELQSEDEADYYCSAWDDSLNGPVFGGGTKVTVLGGGGSGGGGSGGGGSEVQLVESGGGLVQPGGSLRLSCAASGFTFTSYAMNWVRQAPGKGLEWVSDISSSSSYIYYADSVKGRFTISRDNAKNSLYLQMNSLRAEDTAVYYCARDLYSGYDYGYYYGMDVWGQGTTVTVSS
notes: as for B1
B4: anti-CD123 scFv-C21 (scFv)
scFv: QSVLTQPPSASGTPGQRVTISCSGSSSNVGGNPVYWYRQVPTAAPKLLVYGHNQRPPRDPDRFSGSKSGTSASLAISGLRSEDEADYYCAAWDDSLSGWVFGGGTELTVLGGGGSGGGGSGGGGSEVQLVESGGGLVQPGRSLRLSCAASGFTFDDYAMHWVRQAPGKGLEWVSGISWNSGSIGYADSVKGRFTISRDNAKNSLYLQMNSLRAEDTALYYCAKGRYVDIVATINDAFDIWGQGTMVTVSS
notes: as for B1
B5: anti-CD123 scFv-C30 (scFv)
scFv: AIRLTQSPSSLSASVGDRVTITCQASQNINNYLNWYQQKSGKAPKLLIYDASNLEAGVPSRFSGSASGTDFTFTISSLQPEDIATYYCQQNDNLPLTFGQGTRLEIKGGGGSGGGGSGGGGSEVQLVESGGGVVRPGGSLRLSCAASGFTFGDYGMSWVRQAPGKGLEWVSGINWNGGSTGYADSVKGRFTISRDNAKNSLYLQMNSLRAEDTALYYCARDRAPDYGDYLQVGTTDYWGQGTLVTVSS
notes: as for B1
B6: anti-CD123 scFv-C26 (scFv)
scFv: QSVLTQPPSASGTPGQRVTISCSGSRSNIGSNTVSWYQQFPGTAPKLLIYLNNQRPSGVPDRFSGSKSGTSASLAISGLQSEDEAEYYCATWDDDLNGVFGGGTKLTVLGGGGSGGGGSGGGGSEVQLVESGGGLVQPGGSLRLSCAASGFTLSNFEMNWVRQAPGRGLEWVSYISATTSATSYADSVKGRFTISRDNAKNSLYLQMNSLRAEDTAVYYCARVRDGYNFGYYYYYMDVWGKGTTVTVSS
notes: as for B1
B7: anti-CD123 scFv-C34 (scFv)
scFv: QSALTQPPSASGSPGQSVTISCTGTRSDVGAYNYVSWYQHHPGKAPKLMLYDVSKRPSGVSDRFSGSKSGNTASLTVSGLQSEDEANYYCSSYAGSGKYVFGSGTELTVLGGGGSGGGGSGGGGSEVHLVESGGGLVKPGGSLRLSCAASGFTFSDTWMSWVRQAPGKGLEWVGRIKSKTDGGTTNYAAPVKGRFTISRDDSKTTLFLQMNSLKTEDTAVYYCTGGDYPLFAYWGQGALVTVSS
notes: as for B1
B8: anti-CD123 scFv-C19 (scFv)
scFv: DIRMTQSPSSLSASVGDRVTITCRASQDIRHDLGWYQQKPGKAPSLLMYATSTLQSGVPSRFSGSGSGTHFTLTISSLKPEDSATYYCLQDGDYPLTFGGGTKLEIKGGGGSGGGGSGGGGSQVQLVQSGGGVVQPGRSLRLSCAASGFTFSSYGMHWVRQAPGKGLEWVAVISYDGSNKYYADSVKGRFTISRDNSKNTLYLQMNSLRAEDTAVYYCAKDPSLIQYYYYGMDVWGQGTMVTVSS
notes: as for B1
B9: anti-CD123 scFv-C23 (scFv)
scFv: DILMTQSPSSLSASVGDRVTITCQASQDISNYLNWYQQKPGKAPKLLIYDASNLETGVPSRFSGSGSGTGFSFTISSLQPEDFATYYCQQYGNLPLTFGGGTKLEIKGGGGSGGGGSGGGGSQVQLVQSGAEVKKPGASVKVSCKASGYTFTSYGISWVRQAPGQGLEWMGWISAYNGNTNYAQKLQGRVTMTTDTSTSTAYMELRSLRSDDTAVYYCARDRIAAAEVYYYYGMDVWGQGTTVTVSS
notes: as for B1
B10: anti-CD123 scFv-C27 (scFv)
scFv: EIVLTQSPGTVSLSPGERATLSCRASQRVSATYLAWYQQKPGQAPRLLMYGGSRRATGIPDRFSGSGSGTDFTLTIRRLEPEDSAVYYCQQYGSSPLTFGGGTKLEIKGGGGSGGGGSGGGGSQVQLVQSGSELKKPGASVKVSCKASGYTFTSYGISWVRQAPGQGLEWMGWISAYNGNTNYAQKLQGRVTMTTDTSTSTAYMELRSLRSDDTAVYYCARDPYDDYGGNSRDEEDAFDIWGQGTTVTVSS
notes: as for B1
B11: anti-CD123 scFv-C24 (scFv)
scFv: DIQMTQSPSSLSASVGDRVTITCRASQSISSYLNWYQQKPGKAPKLLIHAASSLQSGVPSKFSGSGSGTDFTLTISSLQPEDFATYYCLQYKTYPYTFGPGTKVEIKGGGGSGGGGSGGGGSQVQLVQSGAEVKKPGSSVKVSCKASGGTFSSYAISWVRQAPGQGLEWMGGIIPIFGTANYAQKFQGRVTITADESTSTAYMELSSLRSEDTAVYYCARDSPSGSTNYYYYYMDVWGKGTTVTVSS
notes: as for B1
B12: anti-CD123 scFv-C29 (scFv)
scFv: QPVLTQPPSASGTPGQRVTISCSGSSSNIGSNYVYWYQQLPGTAPKLLIYRNNQRPSGVPDRFSGSKSGTSASLAISGLRSEDEADYYCAAWDDSLSGYVFGTGTKVTVLGGGGSGGGGSGGGGSEVHLVESGGGLVQPGRSLRLSCTASGFTFGDYAMSWVRQAPGKGLEWVGFIRSKAYGGTTEYAASVKGRFTISRDDSKSIAYLQMNSLKTEDTAVYYCTRDIGYYGSGSYSPFDYWGQGTLVTVSS
notes: as for B1
B13: anti-CD123 scFv-C33 (scFv)
scFv: DIRLTQSPSSLSASVGDTITITCRASQDISSWIAWYQQKPGTAPRLLIYAASSLQSGVPSRFSGSGSGTDFTLTINSLHPEDFATYYCQQGSTFPLAFGGGTKVEIKGGGGSGGGGSGGGGSQVQLVQSGAEVKKPGSSVKVSCKASGGTFSSYAISWVRQAPGQGLEWMGGIIPIFGTANYAQKFQGRVTITADESTSTAYMELSSLRSEDTAVYYCARGLDNWNDVGWFDPWGQGTLVTVSS
notes: as for B1

In one experiment the target is T1, CD123-Fc recombinant protein (human, UniProt P26951 19-305).
T1 construct: construct not described; not shown: Fc part
T1 sequence (looked up): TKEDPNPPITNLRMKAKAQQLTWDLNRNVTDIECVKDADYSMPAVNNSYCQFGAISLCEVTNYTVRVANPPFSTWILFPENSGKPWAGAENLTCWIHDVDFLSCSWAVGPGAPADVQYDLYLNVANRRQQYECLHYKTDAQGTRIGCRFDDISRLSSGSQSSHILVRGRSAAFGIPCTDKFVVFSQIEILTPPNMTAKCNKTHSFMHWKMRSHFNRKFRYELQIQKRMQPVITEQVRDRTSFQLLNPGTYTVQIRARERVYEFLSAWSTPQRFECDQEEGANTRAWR
In words: flow cytometry of T cells electroporated with CAR mRNA, stained with CD123-Fc + PE-anti-hIgG-Fc; Mock 1.68. On the procedure: (§1) The CD123 CAR mRNAs obtained in Example 35 above were each introduced into T cells by electroporation according to the following procedures: T cells were collected, washed with the Opti-MEM medium, and resuspended at 1×10e⁷/mL with the Opti-MEM medium; 10 μg of RNA and 100 μL of T cells were aliquoted, mixed well, and electroporated under the following parameters (BTX machine): 500 V, 0.7 ms; the cells were then transferred to a pre-warmed medium and cultured at 37° C. The binding of CD123 CART cells to the CD123-Fc recombinant protein was detected by FACS staining. […] Empty vector (Mock) was a control T cell without CAR molecule. A549 tumor cells were electroporated with different amounts of CD123 mRNA. The electroporation procedure was the same as described above, and only the parameters were changed, with the parameters 300 V, 0.5 ms used. CD123 expression in A549 tumor cells was detected by FACS staining of isotype or anti-CD123 antibodies and A549 cells electroporated with different amounts of CD123 mRNA. […] The cytotoxicity of CD123 CART cells against tumor cells was detected in an in vitro cytotoxicity assay. Tumor cells expressing EGFP or EGFP-A549 cells electroporated with different amounts of tumor antigen were seeded at 3000 cells/100 μL/well into a flat-bottom 96-well plate; CART cells were diluted to a proper concentration and seeded to the 100 μL/well tumor cells according to different E/T ratios (e.g., 10:1, 3:1, or 1:1), and the co-culture plate was placed into the IncuCyte S3 machine and scanning parameters were set. After scanning for 3 days, the total green object integrated intensity (GCU×μm²/well) was analyzed to calculate the killing efficiency.
For orientation: Flow cytometry measures light scatter and fluorescence of single cells or particles in a stream.
Take B1: the “percent of cells in the CD123-Fc positive gate” value (“percent of cells” for short) was 97.5%.
Turning to B2, the “percent of cells” value came to 87.8%.

The target in the next experiment is T1, CD123-Fc recombinant protein. The experiment is described as follows: flow cytometry of T cells electroporated with CAR mRNA, stained with CD123-Fc + PE-anti-hIgG-Fc; Mock 0.36. Here is the method:
as §1
In the case of B3, the “percent of cells” value was 72.1%.
In the case of B4, the “percent of cells” value amounted to 78.6%.
Same read-out and setting: then B5, with 80.7%.
On to B6, for which the “percent of cells” value was 73.4%.
For the molecule B7, the “percent of cells” value is 90.3%.
Take B8: the “percent of cells” value stood at 65.4%.
B9: the “percent of cells” value is 81.8%.
With B10, the “percent of cells” value worked out at 47.8%.
The same measure, in the same setting: under B11 stands 79.5%.
Same read-out and setting: under B12 stands 21.6%; under B13, 58.5%.
